Test results: article PMC6922093

Legend:
[1] = target: RSV strain B18537 DS-Cav1 F glycoprotein (prefusion-stabilized soluble F trimer, subtype B) (RSV subtype B strain B18537 | phage T4); test: SEC; 120 mL Superdex-200 gel filtration column in PBS buffer; single monodisperse peak compared with protein standards
[2] = target: RSV strain B18537 DS-Cav1 F glycoprotein (prefusion-stabilized soluble F trimer, subtype B) (RSV subtype B strain B18537 | phage T4); test: crystal structure; crystals in 1.2M ammonium sulfate, 0.1M sodium acetate pH5.5, 0.1M lithium sulfate; space group P4(1)32, 1 protomer per asymmetric unit; trimer by crystal symmetry

RSV strain B18537 DS-Cav1 F glycoprotein (prefusion-stabilized soluble F trimer, subtype B) (domain or fragment)
stoichiometry N [1]: 3
stoichiometry N [2]: 3
